Results from article PMC3060076 (PLoS Genetics, 2011).
Residue numbers refer to the chain shown, from its start. Names and notes keep the numbering of the source. Blank lines part the entries; values can stand above or below the binder they belong to.

Target: T1, Myc-Smo (6Myc-tagged Smoothened) (Drosophila, UniProt P91682 32-1036)
T1 sequence (looked up): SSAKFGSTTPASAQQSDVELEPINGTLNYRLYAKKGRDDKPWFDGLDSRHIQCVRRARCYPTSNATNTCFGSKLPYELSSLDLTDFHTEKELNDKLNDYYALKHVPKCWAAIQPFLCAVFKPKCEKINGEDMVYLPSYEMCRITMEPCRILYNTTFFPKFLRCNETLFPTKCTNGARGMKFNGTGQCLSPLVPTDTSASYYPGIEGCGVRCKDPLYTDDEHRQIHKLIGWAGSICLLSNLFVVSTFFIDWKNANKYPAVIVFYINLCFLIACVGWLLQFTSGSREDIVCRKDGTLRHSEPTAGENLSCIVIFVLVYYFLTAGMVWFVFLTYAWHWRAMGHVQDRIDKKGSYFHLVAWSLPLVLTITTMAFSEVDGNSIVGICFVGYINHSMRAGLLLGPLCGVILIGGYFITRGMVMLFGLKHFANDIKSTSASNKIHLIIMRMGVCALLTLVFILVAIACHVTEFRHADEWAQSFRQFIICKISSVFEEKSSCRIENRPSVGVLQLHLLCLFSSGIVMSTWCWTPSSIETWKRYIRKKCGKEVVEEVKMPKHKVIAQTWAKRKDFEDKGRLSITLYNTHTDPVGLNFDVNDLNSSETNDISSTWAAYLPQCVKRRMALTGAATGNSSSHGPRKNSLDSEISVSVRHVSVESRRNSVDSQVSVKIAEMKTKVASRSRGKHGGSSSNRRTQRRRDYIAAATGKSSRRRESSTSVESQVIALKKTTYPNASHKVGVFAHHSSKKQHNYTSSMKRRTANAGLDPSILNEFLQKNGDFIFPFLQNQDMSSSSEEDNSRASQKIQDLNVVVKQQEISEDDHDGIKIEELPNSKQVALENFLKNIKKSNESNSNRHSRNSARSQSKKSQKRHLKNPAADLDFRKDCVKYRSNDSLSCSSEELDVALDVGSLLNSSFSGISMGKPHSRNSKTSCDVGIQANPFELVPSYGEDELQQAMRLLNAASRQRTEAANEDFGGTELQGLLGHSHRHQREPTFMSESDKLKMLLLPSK
Test: co-IP; lysates of stable Myc-Smo S2 cells transiently transfected with pAWF-krz constructs, grown in Hh conditioned medium for 18-24 hrs; immunoprecipitated with anti-Myc agarose at 4°C for 4-16 h with 1 mg/ml BSA (IP buffer: 40 mM Tris-HCl, 200 mM NaCl, 1% Chapso, 0,5% NP40); blotted with anti-Krz serum and anti-Myc
Details: partners not purified

fold of co-immunoprecipitate over wild type Krz: 4 times over wild type Krz
B1: Krz^Leu-Flag (pAWF-Krz^Leu; Leu440-Ile441-Leu443 to Ala) (natural protein, Drosophila, UniProt Q9V393 1-470, looked up)
chain: MNGGGGGSGGANVSNGSSTNVTAAGSTGGGSAGDETGGDASSRRQATRVFKKSSSNGKITVYLGKRDFVDHVTHVDPIDGVVFIDPEYVKDRKVFGQVLAAFRYGREDLDVLGLTFRKDLYLAHEQIYPPMQLDRPMTRLQERLIKKLGPNAHPFYFEVPPYCPASVSLQPAPGDVGKSCGVDYELKAFVGENVEDKPHKRNSVRLTIRKVMYAPSKVGEQPSIEVSKEFMMKPNKIHLEATLDKELYHHGEKISVNVHVANNSNRTVKKIKVCVRQFADICLFSTAQYKSVVAEIESEDGCQVAPGFTLSKVFELCPLLANNKDKWGLALDGQLKHEDTNLASSTLITNPAQRESLGIMVHYKVKVKLLISSPLLNGDLVAELPFTLMHPKPEEEEHPLLGERSPRASLAGGGLPLVSMSDGETESATGGQDVPTTTNAAQADDDEAQDDDIIFEDFARLRLKGAETEA

fold of co-immunoprecipitate over wild type Krz: 3 times over wild type Krz
B2: Krz^V94D-Flag (pAWF-Krz^V94D) (natural protein, Drosophila, UniProt Q9V393 1-470, looked up)
chain: B1 chain with V94D, A440L, A441I, A443L
